Test results taken from patent publication US20040009898A1 (UNIVERSITY OF IOWA RESEARCH FOUNDATION, published 2004).
No end group written: not given here.

Biological target: urokinase plasminogen activator receptor (uPAR) on differentiated human airway epithelia (human, UniProt Q03405 23-305, GPI-linked)
Experiment: cell-based or functional assay

Chain of urokinase plasminogen activator receptor (uPAR) on differentiated human airway epithelia (Q03405 23-305): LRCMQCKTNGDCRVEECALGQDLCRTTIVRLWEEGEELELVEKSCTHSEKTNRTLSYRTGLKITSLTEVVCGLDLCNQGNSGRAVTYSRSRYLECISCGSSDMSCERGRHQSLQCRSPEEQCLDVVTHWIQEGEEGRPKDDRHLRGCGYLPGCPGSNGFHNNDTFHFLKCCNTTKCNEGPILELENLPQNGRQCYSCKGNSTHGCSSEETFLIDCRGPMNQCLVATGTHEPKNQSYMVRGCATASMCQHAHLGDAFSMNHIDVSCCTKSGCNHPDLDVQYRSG

B1: u7-peptide coupled through PEG to the capsid of adenovirus Ad2/βgal-4 (other)
peptide: CLNGGTC
modifications: not fully specified; also: coupled through bifunctional PEG to adenovirus capsid, terminal Cys with free sulfhydryl used for coupling
  gene transfer (β-galactosidase) to human airway epithelia: 10 fold
